For data set [1], the target named is CTD2* (A3G-CTD2 E259A), His-tagged (Homo sapiens, UniProt Q9HC16 191-384, P200A;L234K;N236A;C243A;P247K;E259A;F310K;Q318K;C321A;Q322A;C356A). The data set can be described thus: MST; Zn2+ (20 uM ZnCl2); 20 mM Bis-Tris pH 6.5, 100 mM NaCl, 1 mM DTT, 0.002% Tween 20; ZnCl2 20 uM (MST) or 10 uM (EMSA); MST incubated at 4 C, measured at room temperature; EMSA incubated 1 h at room temperature, gel at 4 C. The settings on record: protein: recombinant; tags: poly-His (pET-28a), RED-tris-NTA dye.

Data set [2] concerns the target CTD2* (A3G-CTD2 E259A), GST-purified (Homo sapiens, UniProt Q9HC16 191-384, P200A;L234K;N236A;C243A;P247K;E259A;F310K;Q318K;C321A;Q322A;C356A). As to the kind of experiment: competition; EMSA; unlabeled competitor 25-2500 nM against N2; band not affected; 20 mM Bis-Tris pH 6.5, 100 mM NaCl, 1 mM DTT, 0.002% Tween 20; ZnCl2 20 uM (MST) or 10 uM (EMSA); MST incubated at 4 C, measured at room temperature; EMSA incubated 1 h at room temperature, gel at 4 C. The settings on record: protein: recombinant; tags: GST removed by PreScission protease (pGEX6P-1).

Chain of CTD2* (A3G-CTD2 E259A), His-tagged (Q9HC16 191-384 P200A/L234K/N236A/C243A/P247K/E259A/F310K/Q318K/C321A/Q322A/C356A): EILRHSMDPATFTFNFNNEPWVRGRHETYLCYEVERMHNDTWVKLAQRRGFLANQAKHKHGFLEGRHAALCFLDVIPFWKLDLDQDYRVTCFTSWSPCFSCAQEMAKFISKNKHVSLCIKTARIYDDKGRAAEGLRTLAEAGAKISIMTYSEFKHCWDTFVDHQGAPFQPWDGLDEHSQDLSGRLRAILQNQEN
Chain of CTD2* (A3G-CTD2 E259A), GST-purified (Q9HC16 191-384 P200A/L234K/N236A/C243A/P247K/E259A/F310K/Q318K/C321A/Q322A/C356A): as above

B1: 9nt RNA (ssRNA)
RNA: AAUCCCAAA
Consider B1, for which the Kd in data set [1] was 1500 ± 500 µM.

B2: 9nt substrate ssDNA (ssDNA)
DNA: AATCCCAAA
As to B2, the Kd in data set [1] came to 55 ± 12 µM.

B3: 9nt polyA (ssDNA)
DNA: AAAAAAAAA
Regarding B3, the binding result in data set [2] is “no binding”.

The record behind these values is publication PMC6018426, “Crystal structure of the catalytic domain of HIV-1 restriction factor APOBEC3G in complex with ssDNA”.
